From paper PMC4374754

Assays:
[1] = biological target: RecA D112R N113R, fluorescein-labelled (E. coli); assay: fluorescence polarisation; 20 nM fluorescein-labelled RecA titrated with pol V in solution, no ssDNA (inactive complex); pol V standard reaction buffer (20 mM Tris pH 7.5, 8 mM MgCl2, 5 mM DTT, 0.1 mM EDTA, 25 mM sodium glutamate, 4% glycerol), 25°C; apparent Kd, one-site specific binding
[2] = biological target: RecA D112R, fluorescein-labelled (E. coli); assay: as above

B1: DNA polymerase V (UmuD′2C) (complex)
chain 1: MFALCDVNAFYASCETVFRPDLWGKPVVVLSNNDGCVIARNAEAKALGVKMGDPWFKQKDLFRRCGVVCFSSNYELYADMSNRVMSTLEELSPRVEIYSIDEAFCDLTGVRNCRDLTDFGREIRATVLQRTHLTVGVGIAQTKTLAKLANHAAKKWQRQTGGVVDLSNLERQRKLMSALPVDDVWGIGRRISKKLDAMGIKTVLDLADTDIRFIRKHFNVVLERTVRELRGEPCLQLEEFAPTKQEIICSRSFGERITDYPSMRQAICSYAARAAEKLRSEHQYCRFISTFIKTSPFALNEPYYGNSASVKLLTPTQDSRDIINAATRSLDAIWQAGHRYQKAGVMLGDFFSQGVAQLNLFDDNAPRPGSEQLMTVMDTLNAKEGRGTLYFAGQGIQQQWQMKRAMLSPRYTTRSSDLLRVK
chain 2: GFPSPAADYVEQRIDLNQLLIQHPSATYFVKASGDSMIDGGISDGDLLIVDSAITASHGDIVIAAVDGEFTVKKLQLRPTVQLIPMNSAYSPITISSEDTLDVFGVVIHVVKAMR
RecA D112R (E. coli)
  primer utilization in the pol V transactivation assay (RecA* on poly dT, hairpin primer-template, 1 h at 37°C): 27%
[1]
  Kd: 250 nM
[2]
  Kd: 250 nM
